Tests used:
Assay in all cases: IEDB peptide-MHC binding, purified MHC/direct/fluorescence; filed as Kd, often an IC50 or EC50 that approximates it; ≥ and ≤ were set here for values at or beyond the usual limits of such assays
Conditions in all cases: source organism: Vibrio cholerae V52
HLA-B*15:17 = target: HLA-B*15:17
HLA-A*26:01 = target: HLA-A*26:01
HLA-B*39:01 = target: HLA-B*39:01
HLA-A*02:19 = target: HLA-A*02:19
HLA-B*27:03 = target: HLA-B*27:03
HLA-A*02:01 = target: HLA-A*02:01
HLA-A*23:01 = target: HLA-A*23:01
HLA-A*02:11 = target: HLA-A*02:11

Measured: Kd

MGMEQTMSV
≥ 20 µM: all assays above
